# Data reported in IntAct's records for PubMed 12897212.
# B1: Melanophilin (Homo sapiens), Q9BV36 (parent)
# chain: MGKKLDLSKLTDEEAQHVLEVVQRDFDLRRKEEERLEALKGKIKKESSKRELLSDTAHLNETHCARCLQPYQLLVNSKRQCLECGLFTCKSCGRVHPEEQGWICDPCHLARVVKIGSLEWYYEHVKARFKRFGSAKVIRSLHGRLQGGAGPELISEERSGDSDQTDEDGEPGSEAQAQAQPFGSKKKRLLSVHDFDFEGDSDDSTQPQGHSLHLSSVPEARDSPQSLTDESCSEKAAPHKAEGLEEADTGASGCHSHPEEQPTSISPSRHGALAELCPPGGSHRMALGTAAALGSNVIRNEQLPLQYLADVDTSDEESIRAHVMASHHSKRRGRASSESQIFELNKHISAVECLLTYLENTVVPPLAKGLGAGVRTEADVEEEALRRKLEELTSNVSDQETSSEEEEAKDEKAEPNRDKSVGPLPQADPEVGTAAHQTNRQEKSPQDPGDPVQYNRTTDEELSELEDRVAVTASEVQQAESEVSDIESRIAALRAAGLTVKPSGKPRRKSNLPIFLPRVAGKLGKRPEDPNADPSSEAKAMAVPYLLRRKFSNSLKSQGKDDDSFDRKSVYRGSLTQRNPNARKGMASHTFAKPVVAHQS
# Variants of: B1
# Conditions: with rb27a_human RAB27A
row,Variant,effect of a mutation on the interaction
1,R35V,disrupting interaction
2,R35F,disrupting interaction
3,R35K,disrupting interaction

# Variants of: B1
# Conditions: with rb27a_human RAB27A
# Remark: another data set of the same source
row,Variant,effect of a mutation on the interaction
1,R35W,disrupting interaction
